# Results reported in patent publication US20220288219A1 (MYTHIC THERAPEUTICS, published 2022).
# T1: cell surface CD22 on Ramos (CD22+) cells (human, UniProt P20273 20-847)
# T1 construct: whole, on cells; also called CD22 on WSU-DLCL2, MHH-PREB-1 and Raji cells
# T1 sequence (looked up): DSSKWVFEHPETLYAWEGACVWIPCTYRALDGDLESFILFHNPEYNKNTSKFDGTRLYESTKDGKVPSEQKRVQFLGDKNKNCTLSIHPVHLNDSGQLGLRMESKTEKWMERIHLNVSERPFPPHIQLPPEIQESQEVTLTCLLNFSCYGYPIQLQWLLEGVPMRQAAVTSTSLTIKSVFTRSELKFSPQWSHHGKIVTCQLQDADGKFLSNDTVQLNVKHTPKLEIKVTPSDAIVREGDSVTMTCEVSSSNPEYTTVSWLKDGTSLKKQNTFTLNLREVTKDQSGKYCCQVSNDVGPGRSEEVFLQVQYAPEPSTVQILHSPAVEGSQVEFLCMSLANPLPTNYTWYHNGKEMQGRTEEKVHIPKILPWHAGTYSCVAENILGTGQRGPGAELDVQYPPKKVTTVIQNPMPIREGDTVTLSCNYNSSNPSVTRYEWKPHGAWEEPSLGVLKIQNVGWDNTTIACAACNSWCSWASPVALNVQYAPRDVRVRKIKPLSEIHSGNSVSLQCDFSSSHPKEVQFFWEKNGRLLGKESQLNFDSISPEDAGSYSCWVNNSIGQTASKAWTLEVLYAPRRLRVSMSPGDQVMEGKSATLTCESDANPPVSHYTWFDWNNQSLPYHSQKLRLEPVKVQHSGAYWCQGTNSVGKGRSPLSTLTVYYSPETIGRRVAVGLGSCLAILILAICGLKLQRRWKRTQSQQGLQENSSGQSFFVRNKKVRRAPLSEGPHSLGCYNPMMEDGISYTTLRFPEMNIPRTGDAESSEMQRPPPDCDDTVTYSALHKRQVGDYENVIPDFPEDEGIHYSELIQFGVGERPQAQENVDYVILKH
# T2: CD22 Protein (His Tag), Sino Biological Cat. No. 11958-H08H (UniProt P20273 20-687)
# T2 construct: soluble analyte, 50 nM in BLI; also called Sino Biological antigen
# T2 sequence (looked up): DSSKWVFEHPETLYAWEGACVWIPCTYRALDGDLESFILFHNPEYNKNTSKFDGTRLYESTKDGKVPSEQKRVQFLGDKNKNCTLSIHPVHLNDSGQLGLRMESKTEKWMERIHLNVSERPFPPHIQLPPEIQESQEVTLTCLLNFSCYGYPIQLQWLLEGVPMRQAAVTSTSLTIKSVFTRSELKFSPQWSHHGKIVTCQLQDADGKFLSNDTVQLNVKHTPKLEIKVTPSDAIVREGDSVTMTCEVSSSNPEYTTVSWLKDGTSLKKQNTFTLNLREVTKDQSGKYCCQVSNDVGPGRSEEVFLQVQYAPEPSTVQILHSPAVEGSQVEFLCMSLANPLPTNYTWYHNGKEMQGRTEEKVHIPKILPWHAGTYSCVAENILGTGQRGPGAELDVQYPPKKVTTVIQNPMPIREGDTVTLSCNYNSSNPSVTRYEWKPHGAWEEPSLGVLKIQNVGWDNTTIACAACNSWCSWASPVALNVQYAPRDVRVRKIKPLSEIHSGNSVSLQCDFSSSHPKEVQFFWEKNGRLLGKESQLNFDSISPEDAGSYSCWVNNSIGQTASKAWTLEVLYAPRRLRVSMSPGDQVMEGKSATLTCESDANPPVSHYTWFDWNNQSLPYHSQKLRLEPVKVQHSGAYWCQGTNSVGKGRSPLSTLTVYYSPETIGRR
# T3: CD22 (Acro Biosystems, Cat #CD2-H52H8) (UniProt P20273 20-687)
# T3 construct: soluble analyte, 50 nM in BLI; also called Acro Biosystems antigen
# T3 sequence (looked up): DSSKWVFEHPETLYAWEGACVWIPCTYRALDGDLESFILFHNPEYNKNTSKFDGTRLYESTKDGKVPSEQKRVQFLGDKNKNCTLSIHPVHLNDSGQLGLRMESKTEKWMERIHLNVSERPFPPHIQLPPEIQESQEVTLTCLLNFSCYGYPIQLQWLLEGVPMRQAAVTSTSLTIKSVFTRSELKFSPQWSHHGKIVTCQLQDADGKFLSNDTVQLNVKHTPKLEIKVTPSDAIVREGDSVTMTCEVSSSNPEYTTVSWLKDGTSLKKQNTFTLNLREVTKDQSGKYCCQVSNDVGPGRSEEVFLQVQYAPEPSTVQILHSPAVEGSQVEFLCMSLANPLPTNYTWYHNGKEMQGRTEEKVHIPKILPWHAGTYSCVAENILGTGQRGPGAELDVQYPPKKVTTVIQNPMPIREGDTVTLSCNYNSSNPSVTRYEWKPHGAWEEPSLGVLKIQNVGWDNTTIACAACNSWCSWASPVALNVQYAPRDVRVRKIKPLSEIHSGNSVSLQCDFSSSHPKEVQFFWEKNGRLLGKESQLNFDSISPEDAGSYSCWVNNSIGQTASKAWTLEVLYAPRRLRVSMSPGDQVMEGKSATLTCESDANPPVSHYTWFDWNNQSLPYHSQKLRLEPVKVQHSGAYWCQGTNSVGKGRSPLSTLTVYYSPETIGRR
# Assays:
# [1] = molecular target: T1, cell surface CD22 on Ramos (CD22+) cells; assay: flow cytometry, antibody titration on Ramos (CD22+) cells, AF488 anti-human IgG
# Experimental: 100,000 cells per well were resuspended in 900 μL FC buffer in a 96 well deep well plate. Pinatuzumab, Inotuzumab, and pH engineered antibody variants were serially diluted at a 1:3 dilution. 100 μL of diluted antibody was added to each well with final concentration ranging from ˜100 nM to 0.024 pM and incubated for 2 hours at 4° C. Post incubation, the cells were spun at 2000 rpm for 2 min and supernatant was discarded. Cells were washed twice with 500 μL of ice-cold FC buffer and resuspended with 100 μL of FC buffer. The cells were then transferred from the deep well plate to 96 well round bottom plate, spun at 2000 rpm for 2 min and incubated with 100 μL of 10 μg/mL Alexa Fluor 488 conjugated goat anti-human IgG secondary antibody (ThermoFisher Scientific, A11013) for 30 min. Post incubation, cells were washed with FC buffer and resuspended in 100 μL of FC buffer to read on a BD Accuri C6 flow cytometer. Binding affinity was measured as a dissociation constant KD by GraphPad Prism assuming Michaelis-Menten binding kinetics. MYT1331, MYT4405 and MYT4424 show high affinity binding to cell surface CD22 on Ramos cells in the pM-nM range confirming that variants created through pH engineering can retain functionally appropriate affinities as compared to their corresponding starting ABPCs (e.g., inotuzumab or pinatuzumab).
# [2] = molecular target: T2, CD22 Protein (His Tag), Sino Biological …; assay: BLI, IgG on anti-human Fc sensor, 50 nM CD22
# [3] = molecular target: T3, CD22 (Acro Biosystems, Cat #CD2-H52H8); assay: BLI, IgG on anti-human Fc sensor, 50 nM CD22
binder,measurement,setting,value
"MYT4405 (antibody, V domains shown, inotuzumab VH N31H+N103H; tie by order) VH: EVQLVQSGAEVKKPGASVKVSCKASGYRFTHYWIHWVRQAPGQGLEWIGGINPGNNYATYRRKFQGRVTMTADTSTSTVYMELSSLRSEDTAVYYCTREGYGHYGAWFAYWGQGTLVTVSS VL: DVQVTQSPSSLSASVGDRVTITCRSSQSLANSYGNTFLSWYLHKPGKAPQLLIYGISNRFSGVPDRFSGSGSGTDFTLTISSLQPEDFATYYCLQGTHQPYTFGQGTKVEIK",IC50,[1],0.24 nM
"MYT0520 (antibody, V domains shown, inotuzumab VH Y27H; tie by order) VH: EVQLVQSGAEVKKPGASVKVSCKASGHRFTNYWIHWVRQAPGQGLEWIGGINPGNNYATYRRKFQGRVTMTADTSTSTVYMELSSLRSEDTAVYYCTREGYGNYGAWFAYWGQGTLVTVSS VL: DVQVTQSPSSLSASVGDRVTITCRSSQSLANSYGNTFLSWYLHKPGKAPQLLIYGISNRFSGVPDRFSGSGSGTDFTLTISSLQPEDFATYYCLQGTHQPYTFGQGTKVEIK",binding result,[2],binds
same,binding result,[3],binds
"MYT0550 (antibody, V domains shown, inotuzumab VH N103H; tie by order) VH: EVQLVQSGAEVKKPGASVKVSCKASGYRFTNYWIHWVRQAPGQGLEWIGGINPGNNYATYRRKFQGRVTMTADTSTSTVYMELSSLRSEDTAVYYCTREGYGHYGAWFAYWGQGTLVTVSS VL: DVQVTQSPSSLSASVGDRVTITCRSSQSLANSYGNTFLSWYLHKPGKAPQLLIYGISNRFSGVPDRFSGSGSGTDFTLTISSLQPEDFATYYCLQGTHQPYTFGQGTKVEIK",binding result,[2],binds
same,binding result,[3],binds
"MYT4424 (antibody, V domains shown, inotuzumab VH N31H+T59H+N103H; tie by order) VH: EVQLVQSGAEVKKPGASVKVSCKASGYRFTHYWIHWVRQAPGQGLEWIGGINPGNNYAHYRRKFQGRVTMTADTSTSTVYMELSSLRSEDTAVYYCTREGYGHYGAWFAYWGQGTLVTVSS VL: DVQVTQSPSSLSASVGDRVTITCRSSQSLANSYGNTFLSWYLHKPGKAPQLLIYGISNRFSGVPDRFSGSGSGTDFTLTISSLQPEDFATYYCLQGTHQPYTFGQGTKVEIK",IC50,[1],0.115 nM
"MYT0526 (antibody, V domains shown, inotuzumab VH W33H; tie by order) VH: EVQLVQSGAEVKKPGASVKVSCKASGYRFTNYHIHWVRQAPGQGLEWIGGINPGNNYATYRRKFQGRVTMTADTSTSTVYMELSSLRSEDTAVYYCTREGYGNYGAWFAYWGQGTLVTVSS VL: DVQVTQSPSSLSASVGDRVTITCRSSQSLANSYGNTFLSWYLHKPGKAPQLLIYGISNRFSGVPDRFSGSGSGTDFTLTISSLQPEDFATYYCLQGTHQPYTFGQGTKVEIK",binding result,[2],binds
same,binding result,[3],binds
"inotuzumab (antibody, V domains shown, IgG from Expi293, captured by anti-human Fc; entries headed heavy/light chain hold only the variable domains; also called MYT0518; INOTUZUMAB starting ABPC) VH: EVQLVQSGAEVKKPGASVKVSCKASGYRFTNYWIHWVRQAPGQGLEWIGGINPGNNYATYRRKFQGRVTMTADTSTSTVYMELSSLRSEDTAVYYCTREGYGNYGAWFAYWGQGTLVTVSS VL: DVQVTQSPSSLSASVGDRVTITCRSSQSLANSYGNTFLSWYLHKPGKAPQLLIYGISNRFSGVPDRFSGSGSGTDFTLTISSLQPEDFATYYCLQGTHQPYTFGQGTKVEIK",IC50,[1],0.075 nM
"MYT0536 (antibody, V domains shown, inotuzumab VH Y57H; tie by order) VH: EVQLVQSGAEVKKPGASVKVSCKASGYRFTNYWIHWVRQAPGQGLEWIGGINPGNNHATYRRKFQGRVTMTADTSTSTVYMELSSLRSEDTAVYYCTREGYGNYGAWFAYWGQGTLVTVSS VL: DVQVTQSPSSLSASVGDRVTITCRSSQSLANSYGNTFLSWYLHKPGKAPQLLIYGISNRFSGVPDRFSGSGSGTDFTLTISSLQPEDFATYYCLQGTHQPYTFGQGTKVEIK",binding result,[2],binds
same,binding result,[3],binds
"MYT0544 (antibody, V domains shown, inotuzumab VH T97H; tie by order) VH: EVQLVQSGAEVKKPGASVKVSCKASGYRFTNYWIHWVRQAPGQGLEWIGGINPGNNYATYRRKFQGRVTMTADTSTSTVYMELSSLRSEDTAVYYCHREGYGNYGAWFAYWGQGTLVTVSS VL: DVQVTQSPSSLSASVGDRVTITCRSSQSLANSYGNTFLSWYLHKPGKAPQLLIYGISNRFSGVPDRFSGSGSGTDFTLTISSLQPEDFATYYCLQGTHQPYTFGQGTKVEIK",binding result,[2],binds
same,binding result,[3],binds
"pinatuzumab (antibody, V domains shown, IgG from Expi293; also called MYT1293; PINATUZUMAB starting ABPC) VH: EVQLVESGGGLVQPGGSLRLSCAASGYEFSRSWMNWVRQAPGKGLEWVGRIYPGDGDTNYSGKFKGRFTISADTSKNTAYLQMNSLRAEDTAVYYCARDGSSWDWYFDVWGQGTLVTVSS VL: DIQMTQSPSSLSASVGDRVTITCRSSQSIVHSVGNTFLEWYQQKPGKAPKLLIYKVSNRFSGVPSRFSGSGSGTDFTLTISSLQPEDFATYYCFQGSQFPYTFGQGTKVEIK",IC50,[1],0.362 nM
"MYT1331 (antibody, V domains shown, pinatuzumab VH F107H; tie by order) VH: EVQLVESGGGLVQPGGSLRLSCAASGYEFSRSWMNWVRQAPGKGLEWVGRIYPGDGDTNYSGKFKGRFTISADTSKNTAYLQMNSLRAEDTAVYYCARDGSSWDWYHDVWGQGTLVTVSS VL: DIQMTQSPSSLSASVGDRVTITCRSSQSIVHSVGNTFLEWYQQKPGKAPKLLIYKVSNRFSGVPSRFSGSGSGTDFTLTISSLQPEDFATYYCFQGSQFPYTFGQGTKVEIK",IC50,[1],0.395 nM
